Biological target: MdAP2-34 (Malus domestica, UniProt A0A678SKA5 1-366)
Assay: EMSA; LightShift Chemiluminescent EMSA Kit (Thermo Fisher); buffer, salt, pH and temperature not stated
Settings: protein: recombinant; tags: GST (pGEX-4T-1, N-terminal); label: 5' biotin; blunt

MdAP2-34, sequence (A0A678SKA5 entry or part of it): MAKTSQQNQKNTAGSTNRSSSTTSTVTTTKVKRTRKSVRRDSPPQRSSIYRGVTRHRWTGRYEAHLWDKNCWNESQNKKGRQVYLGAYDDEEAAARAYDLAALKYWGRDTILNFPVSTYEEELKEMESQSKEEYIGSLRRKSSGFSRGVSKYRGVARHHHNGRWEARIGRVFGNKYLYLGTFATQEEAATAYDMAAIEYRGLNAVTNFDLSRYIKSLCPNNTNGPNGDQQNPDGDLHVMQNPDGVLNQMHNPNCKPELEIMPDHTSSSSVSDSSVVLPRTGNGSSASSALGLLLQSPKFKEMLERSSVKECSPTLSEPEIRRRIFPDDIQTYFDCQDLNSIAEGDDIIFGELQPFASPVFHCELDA

B1: MdPSY2-1 promoter hot probe (dsDNA)
DNA 1: CTTTTCTTCTCTCAGTACATGCACCGACGTCGATATTAACCTTGGAACCT
DNA 2: AGGTTCCAAGGTTAATATCGACGTCGGTGCATGTACTGAGAGAAGAAAAG
binding result: binds

From paper PMC8492665, “An apple (Malus domestica) AP2/ERF transcription factor modulates carotenoid accumulation”
